Results reported in a protein production outcome set (Wang et al. 2014).

Assay: label from the status in PepcDB records

| Sequence | protein production |
| --- | --- |
| MGHHHHHHSHMPSYTVTVATGSQWFAGTDDYIYLSLVGSAGCSEKHLLDKPFYNDFERGAVDSYDVTVDEELGEIQLVRIEKRKYWLNDDWYLKYITLKTPHGDYIEFPCYRWITGDVEVVLRDGRAKLARDDQIHILKQHRRKELETRQKQYRWMEWNPGFPLSIDAKCHKDLPRDIQFDSEKGVDFVLNYSKAMENLFINRFMHMFQSSWNDFADFEKIFVKISNTISERVMNHWQEDLMFGYQFLNGCNPVLIRRCTELPEKLPVTTEMVECSLERQLSLEQEVQQGNIFIVDFELLDGIDANKTDPCTLQFLAAPICLLYKNLANKIVPIAIQLNQIPGDENPIFLPSDAKYDWLLAKIWVRSSDFHVHQTITHLLRTHLVSEVFGIAMYRQLPAVHPIFKLLVAHVRFTIAINTKAREQLICECGLFDKANATGGGGHVQMVQRAMKDLTYASLCFPEAIKARGMESKEDIPYYFYRDDGLLVWEAIRTFTAEVVDIYYEGDQVVEEDPELQDFVNDVYVYGMRGRKSSGFPKSVKSREQLSEYLTVVIFTASAQHAAVNFGQ | failed |
| MGHHHHHHSHMRCQESMSAVLTAEQALKLVGEMFVYHMPFNRALGLELERYEKAFAQLAFNNQPMMVGNWAQSILHGGVIASALDVAAGLVCVGSTLTRHETISEDELRQRLSRMGTIDLRVDYLRPGRGNRFTATSSLLRAGNKVAVARVELHNEDQLYIASATATYMVG | failed |
| MGHHHHHHSHMSGEKTVVCKHWLRGLCKKGDQCEFLHEYDMTKMSECYFYSKFGECSNKECPFLHIDPESKI | not failed |
| MGHHHHHHSHMSYKPNLAAHMPAAALNAAGSVHSPSTSMATSSQYRQLLSDYGPPSLGYTQGTGNSQVPQSKYAELLAIIEELGKEIRPTYAGSKSAMERLKRGIIHARGLVRECLAETERNARS | failed |
| MGHHHHHHSHMTHSDKPYKCDRCQASFRYKGNLASHKTVHTGEKPYRCNICGAQFNRPANLKTHTRIHSGEKPY | not failed |
| MGHHHHHHSHSPSPSSRVTVSRASSSRSVRTTRGKRKRVDVEESEASSSVSISHSASATGNVCIEEIDVDGKFIRLKNTSEQDQPMGGWEMIRKIGDTSVSYKYTSRYVLKAGQTVTIWAANAGVTASPPTDLIWKNQNSWGTGEDVKVILKNSQGEEVAQRSTVFKTTIPEEE | not failed |
| MGHHHHHHSHSSFQTMDQMVSNMRNYMQKLERNFGQLSVDPNGHSFCSSSVMTYSKIGDEP | failed |
| MGHLSAPLHRVRVPWQGLLLTASLLTFWNPPTTAQLTTESMPFNVAEGKEVLLLVHNLPQQLFGYSWYKGERVDGNRQIVGYAIGTQQATPGPANSGRETIYPNASLLIQNVTQNDTGFYTLQVIKSDLVNEEATGQFHVYPELPKPSISSNNSNPVEDKDAVAFTCEPETQDTTYLWWINNQSLPVSPRLQLSNGNRTLTLLSVTRNDTGPYECEIQNPVSANRSDPVTLNVTYGPDTPTISPSDTYYRPGANLSLSCYAASNPPAQYSWLINGTFQQSTQELFIPNITVNNSGSYTCHANNSVTGCNRTTVKTIIVTELSPVVAKPQIKASKTTVTGDKDSVNLTCSTNDTGISIRWFFKNQSLPSSERMKLSQGNTTLSINPVKREDAGTYWCEVFNPISKNQSDPIMLNVNYNALPQENGLSPGAIAGIVIGVVALVALIAVALACFLHFGKTGRASDQRDLTEHKPSVSNHTQDHSNDPPNKMNEVTYSTLNFEAQQPTQPTSASPSLTATEIIYSEVKKQ | failed |
| MGIKHLNLTVADVVAAREFLEKYFGLTCSGTRGNAFAVMRDNDGFILTLMKGKEVQYPKTFHVGFPQESEEQVDKINQRLKEDGFLVEPPKHAHAYTFYVEAPGGFTIEVMC | not failed |
| MGILSGNPQDEPLHYGEVFSTWTYLSTNNGLINGYRSFINHTGDEDLKNLIDEAIQAMQDENHQLEELLRSNGVGLPPAPPDRPAARLDDIPVGARFNDPEISATISMDVAKGLVTCSQIIGQSIREDVALMFSQFHMAKVQFGGKMLKLNKNKGWLIPPPLHSDRPIKE | not failed |
| MGIPEEIPPVFKTAVDVLRGASFGVADASILGYPATSMTLNQQVDNFRSMKSNWIDDFIGRSLFMIYIGTEDKLNFTKNKPNAASICHFRY | failed |
| MGIREDIKTVFEKDPAARSTLEVLCCYPGLHAIWMHRVAHSLWNKDLLFLARLTSHISRALTGIEIHPGAKLGKRVFIDHGSGVVIGETAEVGDDVLIYMGVVLGGTALEKKKRHPTVENNAVLGSGAIVLGPITIGRGAKVGAGSVVVRSVPPEATVVGVPARIAGTPQPSAPSEQLDHNKLPDPVLTVISQVLDRMSRLEERFQAHEKASTTPVPVSFVSSENPSVKKDEQIYSLLKDVIDPAVGIDIVNLGFVKEVTVNGTNVDVNLVLTTSACPMIEYFRNQVKRKVMGIKGIENVTVNILDEPWKWDGAGRQAFH | failed |
| MGIRRLVSVITRPIINKVNSSGQYSRVLATREDQDKASPKYMNNDKIAKKPYTYRLFSILGILSICSLLLISLLKPFNGADAPQCESIYMFPSYARIDGFDERYTPLAHKYHLYLYREQSVDREPLNGDELQLDGIPVLFIPGNAGSFRQCRSIASACSNIYFDSNTRATLRNENVRNLDFFTADFNEDFTAFHGETMLDQAEYLNDAIKYILSLYERTPDYPHPKPQSVIIVGHSMGGIVSRVMLTLKNHVPGSISTILTLSSPHAASPVTFDGDILKLYKNTNEYWRKQLSQNDSFFSKNISLVSITGGILDTTLPADYASVEDLVSLENGFTSFTTTIPDVWTPIDHLAIVWCKQLREVLARLLLESIDASKPEKVKPLNQRLQIARKLLLSGFEDYSWMNSKLNYPQENLQEFSDNFFSDYATLEMNDVLDFEMFNLEKWHNNYTKINIPSNISSTEHLHFTLLTSLDMPMIYFCTESRVNLSCITAVDSILTVPRSSKDTQFAADSSFGEAKNPFKAVSVGKNILQKYDYLMISKPTYGEFSEQEGMEDNQGFLLALLRNVSNVQIVNTTPSQILLFGEQLHLDGKDIEQVISFSNLWDSLLSYKLETKIEASNEGIASEETLFQPFIRQWVYEPFESKWHLNIINKSLDINMHNVAPFIPLNESEPRSLQLSFFIPPGMSLEAKMTINWSLTLKMLFIRYRLALASFPVAFIALVLSYQFYWYNKTSEFPSFDSTLGYILRKHGILMFFTLFLASPVVNNKLVQRILYLLDPVGLNYPFLLSERNMHANFYYLGIRDWFMSTIGILFGVMTVGLLALVSKIFGSLEILVIFLQRKLSKKNTEDKEAFDTIEHKAYGKGRLMASVLLLLLVFFHIPYQMAFVISLVIQIATCIRVALLKLSNNEQKLNLLNYNMTLLLLLLFVSAINIPIIIVFLHNVAIKWETSFRSHHNILAVAPIIFLVGNNSIFKMPNSVPLDTWDGKVTIILFVYLTVFSFIYGIRNLYWIHHLVNIICAWLLFFETIH | failed |
| MGISNWQPTMRAACWMSGALVSLLAMAVATRELSAHVSVFQILFFRSACGLLIIVPLVWRAGWRKVATARPGLHVLRNATHFLAQYGWVYGIAFIPMAEVFAIEFTVPVWTALLAAVLLGERLTAARLLAVALGLAGVFVIVRPGSGMIHPAALAVLLGAVAFALAYIMTKMLARTETPLCILFYMTLVQLPLGLAPALANWSSPPPHVWPWILVVGTMGLATHYCLARAMALADATVVVPLDFLRLPLIAVVGAVFYGEAIEPLLFLGAGMILAGNLYSILAERRRPAMPRAARDGSH | failed |
| MGKEYVVIGLGRFGGSIVRELNALDMDVMAIDHDENRVNEYSDIATHAVVADTTDEAVMKSLGIRNFDHVIVAIGENIQSSTLTTLILKELGVKKVTAKAQNDYHAKILNKIGADTVVHPERDMGRRIAHNVASASVLDYLELADEHSIVELKATEKMAGQSIIDLDIRAQYGINIIAIKRGKEFIISPNPNINLEIGDILIMIGHDNDLNRFEKNIATR | failed |
| MGKFTQRLSLRVRLTLIFLILASVTWLLSSFVAWKQTTDNVDELFDTQLMLFAKRLSTLDLNEINAADRMAQTPNRLKHGHVDDDALTFAIFTHDGRMVLNDGDNGEDIPYSYQREGFADGQLVGEDDPWRFVWMTSPDGKYRIVVGQEWEYREDMALAIVAGQLIPWLVALPIMLIIMMVLLGRE | not failed |
| MGKGGDIVVGNGKKYAAPLLVLGCVVFGLGSLIVRSVPVGSYAIAFWRLLISVFVFWFLARFFRQKFPKNRKTVRYALTAGVFLAFDLALWHESIHAVGPGISTLLNSLQIFFLSAIGVFFFGERLSGLKKAGLISAVAGVAMIAGAEFGYNGNAVWGFASGLVSGLMLALSMVFVRKTHEIEPVALFPSMMILSLGGAVSLVVPALLMDGGALYPTTWKDAGLVLVYGVVMQCFAWAMVAYAIPLLSLSLTGLLLLSEPVAALFIDYFGLGKPIEGVQWAGVALTLSAIYLGSLKRQSSH | failed |
| MGKMRTPQEVPARLDALAEAARKLKFDVREPVDAGAGAIGAVHSLDYLRFLREAHARWKQLPDDWGDEVVSNVFVREPNALRGVLAQAARYLADGSCPVGPHTWQSAYWAAQCAISGAQTLLDGERHAYALCRPPGHHARRDAAGGFCYLNNAAIAAQMLTQRYKRVAILDTDMHHGQGIQEIFYERSDVLYVSIHGDPENFYPVVAGFENERGAGEGYGYNVNLPMPHGSPEPVFFDRLQQAQRAIELFQPDALVLSLGFDVFEKDPQAMVAVSANGFERLGQAIGAFKLPTLIVQEGGYYIEGLEDNAERFFAGLAKALEHHHHHH | failed |
| MGKRIAFWFEFASTYSYLSAMRIERAAADLGVTIAWEPFLLGPIFAAQGWTSSPFNLFPAKGRYMWRDMERLCARQGLPLTRPDPFPQNGLPAARLAMVAREMGHIAPFVRAVYAAQFGRGLVISDPQVLAECWAEAGLPPEAMEQAKSPEIKAALFAQGERAAALDLFGAPSFVVGEEVFWGDDRLDQALALAAQS | not failed |
| MGKSIPVKTGLRGASAAVAGFIKSSKPIRPISSMDSSDKDSSSTTTTSETTRRFVPLSSVVSDCAKRWFKDTLEEAKAGNITMQVLLGQMYYSGYGVPKDARKVSSLFPPFQSLLFQVLGYNASDSDSESD | failed |
| MGKVYKKVELVGTSEEGLEAAIQAALARARKTLRHLDWFEVKEIRGTIGEAGVKEYQVVLEVGFRLEET | not failed |
| MGLALCGAAAQAQEKPNFLIIQCDHLTQRVVGAYGQTQGCTLPIDEVASRGVIFSNAYVGCPLSQPSRAALWSGMMPHQTNVRSNSSEPVNTRLPENVPTLGSLFSESGYEAVHFGKTHDMGSLRGFKHKEPVAKPFTDPEFPVNNDSFLDVGTCEDAVAYLSNPPKEPFICIADFQNPHNICGFIGENAGVHTDRPISGPLPELPDNFDVEDWSNIPTPVQYICCSHRRMTQAAHWNEENYRHYIAAFQHYTKMVSKQVDSVLKALYSTPAGRNTIVVIMADHGDGMASHRMVTKHISFYDEMTNVPFIFAGPGIKQQKKPVDHLLTQPTLDLLPTLCDLAGIAVPAEKAGISLAPTLRGEKQKKSHPYVVSEWHSEYEYVTTPGRMVRGPRYKYTHYLEGNGEELYDMKKDPGERKNLAKDPKYSKILAEHRALLDDYITRSKDDYRSLKVDADPRCRNHTPGYPSHEGPGAREILKRK | not failed |
| MGLCVSVNRNEYVSSSTTAKIVTINGDLREYDVPVLASQVLESESTSSSSSSSSSSYFLCNSDSLYYDDFIPAIESDEILQANQIYFVLPISKRQYRLSASDMAALAVKASVAIEKAAGKKNRRRRSGRISPVVTLNQANDNRIAAVNNRIGGEATNMMMQKGKLPNRTTPFKDTNGYSRSGSVRKLKRYTSGRAKLAVRSFRLRLSTIYEGSSFN | failed |
| MGLFDFLKKGLQKTKETFFGRVVKLLKGKKLDDETREELEELLIQADVGVETTEYILERLEEKDGDALESLKEIILEILNFDTKLNVPPEPPFVIMVVGVNGTGKTTSCGKLAKMFVDEGKSVVLAAADTFRAAAIEQLKIWGERVGATVISHSEGADPAAVAFDAVAHALARNKDVVIIDTAGRLHTKKNLMEELRKVHRVVKKKIPDAPHETLLVIDATTGQNGLVQAKIFKEAVNVTGIILTKLDGTAKGGITLAIARELGIPIKFIGVGEKAEDLRPFDPEAFVEVLLSE | not failed |
